Here are results for 8 molecules from patent publication US20250122301A1 (IBIO, published 2025).

The chains are these.
T1: CD25 on CD25+ cells (SUDHL-1, HEK IL-2 reporter cells, primary human regulatory T cells) (human, UniProt P01589 22-272)
T1 construct: whole, on cells; also called IL-2Ralpha
T1 sequence (looked up): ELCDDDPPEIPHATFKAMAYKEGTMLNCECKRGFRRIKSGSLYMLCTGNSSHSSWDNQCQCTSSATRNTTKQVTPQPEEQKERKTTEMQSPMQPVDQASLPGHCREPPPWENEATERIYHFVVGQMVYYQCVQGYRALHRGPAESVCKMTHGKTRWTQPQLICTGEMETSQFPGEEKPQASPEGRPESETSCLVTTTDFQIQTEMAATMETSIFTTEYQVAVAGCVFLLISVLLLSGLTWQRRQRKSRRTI

B1: AH04509 (human IgG1 reformatted) (antibody, V domains shown)
VH: QIQLQQSGAELVRPGTSVKMSCKAAGYTFTNYWIGWVKQRPGHGLEWIGDFYPGGDYINYNEKFKGKATLTADTSSSTAYMQLSSLTSEDSAIYYCTSRNFAYWGQGTPVTVSS
VL: DTTVTQSQRFMSTSVGDRVSVTCKASQNVGTNVAWYQQKPGQSPKPLIYSASYRYSGVPDRFTGSGSGTDFTLTINNVQSEDLAEYFCQQYNNSPLTFGGGTKLEIK
notes: also called AH4509
B2: BP003-T2P1E3 (human IgG1 reformatted) (antibody, V domains shown)
VH: QIQLQQSGAELVRPGTSVKMSCKAAGYTFTNYWIGWVKQRPGHGLEWIGDIHPGGGYTNYNEKFKGKATLTADTSSSTAYMQLSSLTSEDSAIYYCTSRNFAYWGQGTPVTVSS
VL: DIVLTQSQKFMSTSVGDRVSVTCKASQNVGTNVAWYQQKPGQSPKALIYSASYRYSGVPDRFTGSGSGTDFTLTISNVQSEDLAEYFCQQYNSYPYTFGGGTKLEIK
B3: AH05251 (human IgG1 reformatted) (antibody, V domains shown)
VH: EVRLQQSGAELVRSGASVKLSCTASGFNIKDYYIHWVKQRPEQGLEWIGWIDPDNGETEYAPKFQGKATMTADTSSNTAHLQLSSLTSEDTAVYYCTVFWYGNNYAGFAYWGQGTLVTVSS
VL: DVVMTQTPLSLPVNLGDQASISCRSSQSIVHSNGNTYLEWYLQKPGQSPKLLIYKVSNRFSGVPDRFSGSGSGTDFTLKISRVEAEDLGIYYCFQGSHVPPTFGGGTKLEIK
B4: BP003-T2P1D7 (human IgG1 reformatted) (antibody, V domains shown)
VH: QAYLQQSGAELVRSGASVKLSCTASGFNIKDYYIHWVKQRPEQGLEWIGWIDPDNGETEYAPKFQGKATMTADTSSNTAHLQLSSLTSEDTAVYYCTVFWYGNNYAGFAYWGQGTLVTVSA
VL: DVVLTQTPLSLPVSLGDQASISCRSSQSIVHSNGNTYLEWYLQKPGQSPKLLIYKVSNRFSGVPDRFSGSGSGTDFTLKISKVEAEDLGVYYCFQGSHVPPTFGGGTKLEIK
B5: AH05257 (human IgG1 reformatted) (antibody, V domains shown)
VH: QVQLQQSGAELVRPGVSLKISCKGSGYTFTDYAMHWVRQSHAKSLEWIGVISTYSGDAIYNQKFKGKATMTVDKSSSTAYLELARLTSEDSAIYYCARGVTFDYWGQGTTLTVSA
VL: DIVMTQSTSSLSASLGDRVTISCRASQDISNYLSWYQQKPDGTIKLLIYYTSRLHSGVSSRFSGSGSGTDYSLTISNLEQEDFATYFCQQGHTLPPTFGGGTKLEIK
B6: AH05271 (human IgG1 reformatted) (antibody, V domains shown)
VH: QVQLQQSGAELVRPGVSVKISCKGSGYTFTDYAMHWVKQSHAKSLEWIGVISTYSGDVSYNQKFKGKATMTVDKSSSTAYMELARLTSEDSATYYCARGVTFDSWGQGTTLTVSS
VL: DIQMTQTPASLAASVGETVTITCRASENIYFSLAWYQQKQGKSPQLLIYNANTLEDGVPSRFSGSGSGTQFSMKINNMQPEDTATYFCKQAYDVPWTFGGGTKLEIK
B7: AH05258 (human IgG1 reformatted) (antibody, V domains shown)
VH: QIQLQQSGAELVRPGVSVKISCKGSGYTFTDYAMHWVKQSHAKSLEWIGVISTYSGDVSYNQKFKGKATMTVDKSSSTAYMELARLTSEDSAIYYCARGVTFDSWGQGTTLTVSS
VL: DIVMTQSHKFMSTSVGDRVSITCKASQDVSTAVAWYQQKPGQSPKLLIYSASYRYTGVPDRFTGSGSGTDFTFTISSVQAEDLAVYYCQQHYSTPFTFGSGTKLEIK
B8: AH05280 (human IgG1 reformatted) (antibody, V domains shown)
VH: EVRLQQSGADLMKPGASVKISCKTSGYTFSNYWTEWIKQRPGHGLEWIGEILPGSGFTNYNENFKGKATFTADTSSNTTYMQLSSLTSEDSAVYYCARGGTSVVHFDYWGQGTSLTVSS
VL: DIVMTQTPKFLLVSAGDRVTITCKASQSVNNDVLWYQQKPGQSPKLLIYYASNRYTGVPDRFTGSGYGTDFTFTISTVQAEDLAVYFCQQAYWSPYTFGGGTKLEIK

The assay addresses T1, CD25 on CD25+ cells (SUDHL-1, HEK IL-2 …). Nature of the assay: flow cytometry, dose response on CD25+ SUDHL-1 cells.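 Also: antibody binding to cells read as median fluorescence intensity of an AF647 anti-human Fc secondary, DAPI+ dead cells excluded, 20 min on ice, 5-fold dilutions from 10 ug/mL.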 On the technique in general: Flow cytometry measures light scatter and fluorescence of single cells or particles in a stream.
Procedure: For each cell line, 100,000 cells were plated in a 96 well round bottom plate in cell buffer (PBS+2% HI FBS) and centrifuged. Antibody concentrations from 1-10 ug/mL were used to test the binding of each antibody. Cell were resuspended in 100 uL of antibodies/well and incubated for 20 minutes on ice. After incubation, cells were centrifuged at 300×g for 5 minutes at room temperature, and resuspended and washed with ice cold cell buffer. Cells were then stained with an anti-human Fc secondary antibody conjugated to AF647 (Biolegend) and incubated on ice for 20 min in the dark. Cells were centrifuged, washed and resuspended in cold cell buffer with DAPI and analyzed using flow cytometry (Cytoflex, Becton Dickinson). DAPI+ cell were excluded from analysis. The mean fluorescence intensity was calculated using the median (FlowJo, TreeStar).
One may read the EC50 as the concentration at which the effect is half-maximal. A higher EC50 goes with a need for much substance. As to B1, the EC50 came out at 0.121 µg/mL. For B2 the value was 0.125 µg/mL; for B3, 0.132 µg/mL; for B4, 0.125 µg/mL. The result for B5 reads 0.113 µg/mL; that for B6, 0.25 µg/mL. B7: the EC50 was determined as 0.184 µg/mL.

On to B8, for which the EC50 is 0.387 µg/mL.
